Columns and labels:
[1] = target: acetyl-lysine peptide of Example 6 (printed as RLK{acetyl}FIAYPDDD, SEQ ID NO: 826), state with N-terminal AK{acetyl}; experiment: single-molecule on-chip sequencing with PS691, PS610, PS961 and PS1165
[2] = target: lysine peptide of Example 6 (printed as …, SEQ ID NO: 825), state with N-terminal AK; experiment: as above

Sequence of PS1165 (Q13490 other isoform, or with tags, fused parts or gaps): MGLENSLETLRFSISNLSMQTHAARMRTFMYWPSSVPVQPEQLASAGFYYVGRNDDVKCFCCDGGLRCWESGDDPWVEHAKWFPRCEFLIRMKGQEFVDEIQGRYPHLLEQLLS

RS mean PD [1]: 2.2 s
RS mean PD [2]: 1.3 s
Substance: PS1165 (from UniProt Q13490 250-361)
